# Test results reported in patent US20210238260A1.
# How the values were obtained:
# [1] = molecular target: antithrombin III (plasma purified human AT-III, Molecular Innovations) (human) (UniProt P01008); assay: AT-III/UFH inhibition of FIXa cleavage of Mesyl-D-CHG-Gly-Arg-AMC; K0.5 = AT-III conc. for 50% inhibition (AT-III varied)
# [2] = molecular target: Factor VIIIa (recombinant FVIII, Kogenate FS, activated with alpha-thrombin) (UniProt P00451); assay: apparent functional KD (KD-app): FXa generation by FIXa with FVIIIa titrated, PC/PS vesicles, saturating FX, fluorogenic Spectrafluor FXa
# Factor VIIIa (recombinant FVIII, Kogenate FS, activated with alpha-thrombin), sequence (P00451 other isoform, or with tags, fused parts or gaps limits assumed): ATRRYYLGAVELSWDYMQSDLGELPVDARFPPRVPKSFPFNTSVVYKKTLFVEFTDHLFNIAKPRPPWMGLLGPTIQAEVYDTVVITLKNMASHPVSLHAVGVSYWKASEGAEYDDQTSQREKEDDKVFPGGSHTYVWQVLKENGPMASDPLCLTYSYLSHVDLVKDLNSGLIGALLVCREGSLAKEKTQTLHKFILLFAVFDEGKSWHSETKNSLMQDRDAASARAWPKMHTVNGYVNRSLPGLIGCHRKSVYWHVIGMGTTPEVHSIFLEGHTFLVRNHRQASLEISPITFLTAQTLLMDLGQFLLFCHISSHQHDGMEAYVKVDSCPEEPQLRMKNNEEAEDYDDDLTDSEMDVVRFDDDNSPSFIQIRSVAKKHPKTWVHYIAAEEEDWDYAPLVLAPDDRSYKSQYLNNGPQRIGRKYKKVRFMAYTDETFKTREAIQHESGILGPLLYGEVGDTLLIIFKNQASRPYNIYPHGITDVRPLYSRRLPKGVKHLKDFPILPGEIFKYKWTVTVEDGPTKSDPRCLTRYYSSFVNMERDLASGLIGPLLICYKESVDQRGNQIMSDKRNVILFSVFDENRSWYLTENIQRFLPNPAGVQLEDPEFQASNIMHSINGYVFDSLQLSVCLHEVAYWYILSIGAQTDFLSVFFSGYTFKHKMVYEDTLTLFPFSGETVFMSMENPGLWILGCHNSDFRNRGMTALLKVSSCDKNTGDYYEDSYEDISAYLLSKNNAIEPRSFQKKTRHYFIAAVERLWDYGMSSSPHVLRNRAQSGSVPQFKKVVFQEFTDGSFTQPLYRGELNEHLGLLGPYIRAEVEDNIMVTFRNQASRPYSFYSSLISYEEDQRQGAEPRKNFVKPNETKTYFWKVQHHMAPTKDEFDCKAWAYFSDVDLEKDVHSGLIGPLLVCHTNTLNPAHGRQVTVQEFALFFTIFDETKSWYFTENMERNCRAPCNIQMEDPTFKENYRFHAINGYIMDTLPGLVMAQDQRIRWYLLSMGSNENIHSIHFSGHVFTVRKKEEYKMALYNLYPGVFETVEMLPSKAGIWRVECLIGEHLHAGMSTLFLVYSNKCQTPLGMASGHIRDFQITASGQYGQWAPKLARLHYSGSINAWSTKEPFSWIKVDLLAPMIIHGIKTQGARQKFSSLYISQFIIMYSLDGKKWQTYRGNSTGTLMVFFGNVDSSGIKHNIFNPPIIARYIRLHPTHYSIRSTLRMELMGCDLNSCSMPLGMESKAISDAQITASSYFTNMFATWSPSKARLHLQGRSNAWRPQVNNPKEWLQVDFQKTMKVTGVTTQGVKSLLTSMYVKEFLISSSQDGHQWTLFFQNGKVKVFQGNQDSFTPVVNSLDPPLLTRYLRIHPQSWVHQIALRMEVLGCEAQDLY
# [3] = molecular target: plasma purified human antithrombin III (AT-III), in complex with unfractionated heparin (UFH) (human) (UniProt P01008); assay: K0.5: AT-III conc. (with UFH) for 50% inhibition of FIXa cleavage of Mesyl-D-CHG-Gly-Arg-AMC
# FIXa R318N/A320S (human) = FIXa R318N/A320S (human) (UniProt P00740); assay: cell-based or functional assay
# [4] = molecular target: FIXa D104N/K106S/Y155F/K247N/N249S (human) (UniProt P00740); assay: cell-based or functional assay
# FIXa F314N/H315S (human) = FIXa F314N/H315S (human) (UniProt P00740); assay: cell-based or functional assay
# [5] = molecular target: FIXa D104N/K106S/Y155F/N260S (human) (UniProt P00740); assay: cell-based or functional assay
# FIXa E410N (human) = FIXa E410N (human) (UniProt P00740); assay: cell-based or functional assay
# FIXa K400E/R403E (human) = FIXa K400E/R403E (human) (UniProt P00740); assay: cell-based or functional assay
# FIXa Y155F/N260S (human) = FIXa Y155F/N260S (human) (UniProt P00740); assay: cell-based or functional assay
# FIXa A204M (human) = FIXa A204M (human) (UniProt P00740); assay: cell-based or functional assay
# [6] = molecular target: FIXa D104N/K106S/N260S (human) (UniProt P00740); assay: cell-based or functional assay
# [7] = molecular target: FIXa D85N/D104N/K106S/I251S (human) (UniProt P00740); assay: cell-based or functional assay
# FIXa K413N (human) = FIXa K413N (human) (UniProt P00740); assay: cell-based or functional assay
# FIXa R318Y (human) = FIXa R318Y (human) (UniProt P00740); assay: cell-based or functional assay
# FIXa T241N/H243S (human) = FIXa T241N/H243S (human) (UniProt P00740); assay: cell-based or functional assay
# FIXa R403A (human) = FIXa R403A (human) (UniProt P00740); assay: cell-based or functional assay
# [8] = molecular target: FIXa A103N/N105S/K247N/N249S (human) (UniProt P00740); assay: cell-based or functional assay
# [9] = molecular target: FIXa Y155F/K247N/N249S (human) (UniProt P00740); assay: cell-based or functional assay
# FIXa R312Y (human) = FIXa R312Y (human) (UniProt P00740); assay: cell-based or functional assay
# FIXa D203Y (human) = FIXa D203Y (human) (UniProt P00740); assay: cell-based or functional assay
# FIXa R318A (human) = FIXa R318A (human) (UniProt P00740); assay: cell-based or functional assay
# FIXa R318E (human) = FIXa R318E (human) (UniProt P00740); assay: cell-based or functional assay
# FIXa Y284N (human) = FIXa Y284N (human) (UniProt P00740); assay: cell-based or functional assay
# FIXa E239N (human) = FIXa E239N (human) (UniProt P00740); assay: cell-based or functional assay
# [10] = molecular target: FIXa A103N/N105S/I251S (human) (UniProt P00740); assay: cell-based or functional assay
# FIXa K400A/R403A (human) = FIXa K400A/R403A (human) (UniProt P00740); assay: cell-based or functional assay
# FIXa D203M (human) = FIXa D203M (human) (UniProt P00740); assay: cell-based or functional assay
# FIXa V202M (human) = FIXa V202M (human) (UniProt P00740); assay: cell-based or functional assay
# FIXa N260S (human) = FIXa N260S (human) (UniProt P00740); assay: cell-based or functional assay
substance,measurement,setting,value
"Plasma Purified FIXa (Haematologic Technologies, Inc.) (from UniProt P00740 47-191; P00740 227-461) (enzyme)",IC50,[1],30 nM
Plasma Purified FIXa (from UniProt P00740 47-191; P00740 227-461) (enzyme),Kd,[2],102 nM
same,IC50,[3],30 nM
"plasma purified human AT-III (antithrombin III), in complex with full-length unfractionated heparin (from UniProt P01008 33-464)","K0.5 (nM), inhibition of FIXa by AT-III/UFH",FIXa R318N/A320S (human),> 999 nM
same,"K0.5 (nM), inhibition of FIXa by AT-III/UFH",[4],27 nM
same,"K0.5 (nM), inhibition of FIXa by AT-III/UFH",FIXa F314N/H315S (human),104 nM
same,"K0.5 (nM), inhibition of FIXa by AT-III/UFH",[5],292 nM
same,"K0.5 (nM), inhibition of FIXa by AT-III/UFH",FIXa E410N (human),9 nM
same,"K0.5 (nM), inhibition of FIXa by AT-III/UFH",FIXa K400E/R403E (human),> 999 nM
same,"K0.5 (nM), inhibition of FIXa by AT-III/UFH",FIXa Y155F/N260S (human),77 nM
same,"K0.5 (nM), inhibition of FIXa by AT-III/UFH",FIXa A204M (human),29 nM
same,"K0.5 (nM), inhibition of FIXa by AT-III/UFH",[6],228 nM
same,"K0.5 (nM), inhibition of FIXa by AT-III/UFH",[7],28 nM
same,"K0.5 (nM), inhibition of FIXa by AT-III/UFH",FIXa K413N (human),27 nM
same,"K0.5 (nM), inhibition of FIXa by AT-III/UFH",FIXa R318Y (human),1980 nM
same,"K0.5 (nM), inhibition of FIXa by AT-III/UFH",FIXa T241N/H243S (human),21 nM
same,"K0.5 (nM), inhibition of FIXa by AT-III/UFH",FIXa R403A (human),190 nM
same,"K0.5 (nM), inhibition of FIXa by AT-III/UFH",[8],53 nM
same,"K0.5 (nM), inhibition of FIXa by AT-III/UFH",[9],13 nM
same,"K0.5 (nM), inhibition of FIXa by AT-III/UFH",FIXa R312Y (human),2500 nM
same,"K0.5 (nM), inhibition of FIXa by AT-III/UFH",FIXa D203Y (human),16 nM
same,"K0.5 (nM), inhibition of FIXa by AT-III/UFH",FIXa R318A (human),4140 nM
same,"K0.5 (nM), inhibition of FIXa by AT-III/UFH",FIXa R318E (human),> 10000 nM
same,"K0.5 (nM), inhibition of FIXa by AT-III/UFH",FIXa Y284N (human),41 nM
same,"K0.5 (nM), inhibition of FIXa by AT-III/UFH",FIXa E239N (human),132 nM
same,"K0.5 (nM), inhibition of FIXa by AT-III/UFH",[10],42 nM
same,"K0.5 (nM), inhibition of FIXa by AT-III/UFH",FIXa K400A/R403A (human),> 999 nM
same,"K0.5 (nM), inhibition of FIXa by AT-III/UFH",FIXa D203M (human),11 nM
same,"K0.5 (nM), inhibition of FIXa by AT-III/UFH",FIXa V202M (human),14 nM
same,"K0.5 (nM), inhibition of FIXa by AT-III/UFH",FIXa N260S (human),312 nM
